Broadly, the Kd is the equilibrium constant for the complex coming apart. A word on the EC50: it is the concentration needed to bring the measured effect to its halfway point. Broadly, the IC50 is the point on the concentration scale where inhibition reaches its midpoint.

For assay [1], the target named is T1, human integrin αvβ8 on CHO cells (human, UniProt P06756 31-1048; P26012 43-769).
T1 construct: also called CHO cells expressing αvβ8; CHO lec cells stably transfected with αvβ8
The experiment in a line: cell adhesion to coated peptide, crystal violet, signal above mock transfected cells (FIG. 25).

Assay [2] addresses T2, recombinant human integrin αvβ8 (human, UniProt P06756 31-992; P26012 43-684). Briefly: cell-based or functional assay.
Assay [3] deals with T2, recombinant human integrin αvβ8. Briefly: Kinetic Exclusion Assay (KinExA), C6D4 as murine IgG2a. (In general: Kinetic exclusion samples the free partner from a solution-phase mixture.)
Assay [4] concerns the target T3, recombinant human integrin αvβ1 (human, UniProt P05556 21-728).
T3 construct: Bought; also called αvβ1 (R&D systems)
The experiment in a line: ELISA on coated recombinant human integrin; 0 = no apparent binding.
Source text: (§1) Binding was quantified by intensity as 0-4 (0 representing no apparent binding; 4 representing robust binding) and results normalized to expression.

In assay [5] the target is T4, recombinant human integrin αvβ3 (human, UniProt P05106 27-718).
T4 construct: Bought; also called αvβ3 (R&D systems)
T4 sequence (chain, as listed by the source limits assumed, chain 1 of 2): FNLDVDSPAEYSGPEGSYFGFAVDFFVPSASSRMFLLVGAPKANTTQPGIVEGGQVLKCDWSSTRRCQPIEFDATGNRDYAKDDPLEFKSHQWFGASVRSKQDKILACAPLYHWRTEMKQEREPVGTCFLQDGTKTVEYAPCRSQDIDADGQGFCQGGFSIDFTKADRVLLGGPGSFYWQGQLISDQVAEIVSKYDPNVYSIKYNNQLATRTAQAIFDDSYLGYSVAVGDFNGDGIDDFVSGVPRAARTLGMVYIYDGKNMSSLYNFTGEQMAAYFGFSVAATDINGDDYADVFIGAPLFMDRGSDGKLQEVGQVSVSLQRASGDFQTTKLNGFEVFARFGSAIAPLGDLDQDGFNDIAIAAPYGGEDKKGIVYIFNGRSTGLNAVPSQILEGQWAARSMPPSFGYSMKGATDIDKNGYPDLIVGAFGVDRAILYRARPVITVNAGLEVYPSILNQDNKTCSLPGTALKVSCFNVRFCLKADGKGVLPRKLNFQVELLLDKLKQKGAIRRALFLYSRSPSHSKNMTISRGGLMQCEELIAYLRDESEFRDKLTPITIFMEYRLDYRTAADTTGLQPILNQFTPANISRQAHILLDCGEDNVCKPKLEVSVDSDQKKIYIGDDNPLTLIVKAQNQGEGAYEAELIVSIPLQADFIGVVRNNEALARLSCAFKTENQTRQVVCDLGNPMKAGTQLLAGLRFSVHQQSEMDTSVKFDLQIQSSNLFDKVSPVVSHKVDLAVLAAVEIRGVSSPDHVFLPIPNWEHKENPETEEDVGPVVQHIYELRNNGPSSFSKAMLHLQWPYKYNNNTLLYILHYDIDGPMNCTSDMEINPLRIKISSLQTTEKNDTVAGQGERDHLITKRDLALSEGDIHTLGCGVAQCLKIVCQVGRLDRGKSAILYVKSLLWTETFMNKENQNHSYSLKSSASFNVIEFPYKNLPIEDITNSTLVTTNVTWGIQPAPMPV
T4 sequence (P05106 27-718 limits assumed, chain 2 of 2): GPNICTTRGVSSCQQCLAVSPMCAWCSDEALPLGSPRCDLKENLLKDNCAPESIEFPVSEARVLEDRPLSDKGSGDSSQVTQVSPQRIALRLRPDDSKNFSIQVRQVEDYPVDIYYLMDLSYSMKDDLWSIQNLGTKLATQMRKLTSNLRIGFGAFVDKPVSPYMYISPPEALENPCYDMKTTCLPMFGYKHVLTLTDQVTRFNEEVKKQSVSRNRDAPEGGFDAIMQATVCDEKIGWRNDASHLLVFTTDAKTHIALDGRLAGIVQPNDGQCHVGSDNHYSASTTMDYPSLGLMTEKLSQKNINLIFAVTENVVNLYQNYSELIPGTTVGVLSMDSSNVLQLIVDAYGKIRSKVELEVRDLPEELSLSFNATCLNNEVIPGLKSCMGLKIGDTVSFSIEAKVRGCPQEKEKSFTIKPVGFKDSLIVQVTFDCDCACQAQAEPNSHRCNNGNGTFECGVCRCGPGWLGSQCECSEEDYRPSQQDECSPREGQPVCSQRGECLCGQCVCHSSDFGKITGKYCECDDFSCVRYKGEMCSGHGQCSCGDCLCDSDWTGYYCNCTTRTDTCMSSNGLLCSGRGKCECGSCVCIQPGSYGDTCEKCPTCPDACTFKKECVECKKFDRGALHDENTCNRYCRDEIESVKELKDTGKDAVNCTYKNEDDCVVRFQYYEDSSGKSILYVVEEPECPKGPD
The description is as above.
Source text: as §1

Assay [6] concerns the target T5, recombinant human integrin αvβ5 (human, UniProt P18084 24-719).
T5 construct: Bought; also called αvβ5 (R&D systems)
The description is as above.
Source text: as §1

Assay [7] has as its target T2, recombinant human integrin αvβ8. The experiment in a line: ELISA, Mab coated at 5 ug/ml, receptor 0.5 µg/ml in Mg buffer (1 mM Ca++ and 1 mM Mg++), detected with biotinylated anti-αv 8B8. In general terms: ELISA stands for enzyme-linked immunosorbent assay.
Procedure: (§2) Binding in EDTA containing buffer defines cation-dependence because EDTA binds to Ca⁺⁺ and Mg′. Magnesium cation buffers contains 1 mM Ca⁺⁺ and 1 mM Mg⁺⁺. Here, the results are relative to anti-av, clone 11D12V2. All antibodies were coated on ELISA plates at 5 μg/ml.
Assay [8] has the same target. The experiment in a line: ELISA: integrin coated on plate, supernatant of transfected 293 cells at 1/10 dilution, anti-mouse IgG-HRP; score normalized to expression.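 Also: scale runs from 0 (no apparent binding) to 4 (robust binding), with scores adjusted for clone protein expression as determined by a murine IgG ELISA.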
Source text: as §1
In assay [9] the target is T6, recombinant human integrin αvβ6 (human, UniProt P18564 22-707).
T6 construct: also called αvβ6 (R&D systems); αvβ6 receptor
T6 sequence (chain, as listed by the source limits assumed, chain 1 of 2): as the sequence (chain, as listed by the source limits assumed, chain 1 of 2) above
T6 sequence (P18564 22-707 limits assumed, chain 2 of 2): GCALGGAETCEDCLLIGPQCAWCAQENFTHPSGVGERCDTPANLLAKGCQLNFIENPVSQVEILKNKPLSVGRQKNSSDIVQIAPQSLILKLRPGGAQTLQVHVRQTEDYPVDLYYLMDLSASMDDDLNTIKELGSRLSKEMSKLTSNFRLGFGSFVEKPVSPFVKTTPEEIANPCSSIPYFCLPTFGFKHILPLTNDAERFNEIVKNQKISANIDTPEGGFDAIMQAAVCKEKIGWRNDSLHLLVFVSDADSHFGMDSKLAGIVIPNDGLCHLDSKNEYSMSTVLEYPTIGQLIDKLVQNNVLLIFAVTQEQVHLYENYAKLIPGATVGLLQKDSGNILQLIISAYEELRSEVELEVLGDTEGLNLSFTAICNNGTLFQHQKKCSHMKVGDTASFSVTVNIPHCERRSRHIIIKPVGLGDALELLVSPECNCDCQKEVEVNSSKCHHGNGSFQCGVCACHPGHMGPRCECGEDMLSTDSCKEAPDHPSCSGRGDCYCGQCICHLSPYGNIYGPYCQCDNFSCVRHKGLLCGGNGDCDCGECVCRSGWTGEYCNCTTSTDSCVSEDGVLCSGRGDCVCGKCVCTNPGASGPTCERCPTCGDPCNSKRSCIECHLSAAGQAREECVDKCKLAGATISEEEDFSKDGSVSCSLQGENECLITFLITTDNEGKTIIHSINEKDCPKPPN
The experiment in a line: ELISA, Mab coated at 5 ug/ml, αvβ6 receptor 0.5 µg/ml, detected with biotinylated anti-αv 8B8; percent of binding to anti-αv clone 11D12V2.
Procedure: as §2

Assay [10] deals with T2, recombinant human integrin αvβ8. The experiment in a line: blocking of adhesion (A590) of Cho cells expressing GARP/LTGFB1 to immobilized αvβ8; antibody concentration varied; unit taken from the axis log[Agonist], (ug/ml).
Source text: Here, Cho3.2.8.1 cells were transfected with GARP and LTGFB1.
The target of assay [11] is T7, truncated secreted form of αvβ8 fused in frame to alkaline phosphatase.
T7 construct: Printed: truncated secreted form; also called alkaline phosphatase (AP) αvβ8 fusion protein; secreted αvβ8
T7 sequence (P06756 31-992, chain 1 of 2): as the sequence (chain, as listed by the source limits assumed, chain 1 of 2) above
T7 sequence (P26012 43-684, chain 2 of 2, further chain): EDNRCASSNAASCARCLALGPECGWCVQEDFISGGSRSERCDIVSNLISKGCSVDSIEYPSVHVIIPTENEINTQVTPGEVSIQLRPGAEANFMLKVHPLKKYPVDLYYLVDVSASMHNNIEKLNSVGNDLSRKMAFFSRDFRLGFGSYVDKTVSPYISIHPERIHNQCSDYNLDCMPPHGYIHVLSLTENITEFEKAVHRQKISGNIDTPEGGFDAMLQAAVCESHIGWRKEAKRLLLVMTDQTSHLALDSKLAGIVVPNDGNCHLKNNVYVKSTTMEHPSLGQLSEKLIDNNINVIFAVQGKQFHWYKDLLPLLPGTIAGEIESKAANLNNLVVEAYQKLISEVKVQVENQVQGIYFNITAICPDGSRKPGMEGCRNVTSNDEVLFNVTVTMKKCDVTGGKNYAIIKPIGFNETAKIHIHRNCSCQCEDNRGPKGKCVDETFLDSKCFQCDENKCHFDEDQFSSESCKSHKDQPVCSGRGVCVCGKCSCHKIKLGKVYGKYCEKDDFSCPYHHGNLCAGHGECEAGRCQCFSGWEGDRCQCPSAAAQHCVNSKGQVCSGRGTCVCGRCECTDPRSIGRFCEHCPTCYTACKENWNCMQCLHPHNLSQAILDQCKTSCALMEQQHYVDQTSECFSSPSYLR
The experiment in a line: ELISA: inhibition of binding of secreted αvβ8-alkaline phosphatase to coated TGF-β3 RGD peptide (1 µg/ml), OD405; fitted value in the table under the graph; unit from the axis and paragraph 229.

Assay [12] has as its target T2, recombinant human integrin αvβ8. Briefly: scFv yeast display selection from random mutation libraries of clones 29 and 44.

Substitutions are numbered along the chain they refer to. Ends that are not written are not given here.

T2 sequence (P06756 31-992 limits assumed, chain 1 of 2): as the sequence (chain, as listed by the source limits assumed, chain 1 of 2) above
T2 sequence (P26012 43-684 limits assumed, chain 2 of 2): as the sequence (P26012 43-684, chain 2 of 2, further chain) above
T3 sequence (chain, as listed by the source limits assumed, chain 1 of 2): as the sequence (chain, as listed by the source limits assumed, chain 1 of 2) above
T3 sequence (P05556 21-728 limits assumed, chain 2 of 2): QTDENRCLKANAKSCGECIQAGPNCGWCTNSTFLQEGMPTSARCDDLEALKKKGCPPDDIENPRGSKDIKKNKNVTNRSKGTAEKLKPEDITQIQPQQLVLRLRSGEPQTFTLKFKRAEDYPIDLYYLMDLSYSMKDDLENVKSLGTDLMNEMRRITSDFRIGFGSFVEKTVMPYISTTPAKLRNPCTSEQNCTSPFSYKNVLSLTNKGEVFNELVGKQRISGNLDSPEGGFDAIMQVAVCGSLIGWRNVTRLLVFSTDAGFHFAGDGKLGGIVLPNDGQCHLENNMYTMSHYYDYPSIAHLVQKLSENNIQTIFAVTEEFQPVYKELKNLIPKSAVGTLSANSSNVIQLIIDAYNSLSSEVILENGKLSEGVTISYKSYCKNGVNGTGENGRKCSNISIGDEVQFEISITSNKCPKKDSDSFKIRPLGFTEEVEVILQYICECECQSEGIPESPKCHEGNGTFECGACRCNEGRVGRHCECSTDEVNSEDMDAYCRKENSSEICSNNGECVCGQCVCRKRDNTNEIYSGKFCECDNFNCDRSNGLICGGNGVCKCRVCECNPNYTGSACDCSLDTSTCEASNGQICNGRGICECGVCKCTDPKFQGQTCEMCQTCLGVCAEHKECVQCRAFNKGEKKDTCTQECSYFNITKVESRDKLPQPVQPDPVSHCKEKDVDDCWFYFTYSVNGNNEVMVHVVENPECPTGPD
T5 sequence (chain, as listed by the source limits assumed, chain 1 of 2): as the sequence (chain, as listed by the source limits assumed, chain 1 of 2) above
T5 sequence (P18084 24-719 limits assumed, chain 2 of 2): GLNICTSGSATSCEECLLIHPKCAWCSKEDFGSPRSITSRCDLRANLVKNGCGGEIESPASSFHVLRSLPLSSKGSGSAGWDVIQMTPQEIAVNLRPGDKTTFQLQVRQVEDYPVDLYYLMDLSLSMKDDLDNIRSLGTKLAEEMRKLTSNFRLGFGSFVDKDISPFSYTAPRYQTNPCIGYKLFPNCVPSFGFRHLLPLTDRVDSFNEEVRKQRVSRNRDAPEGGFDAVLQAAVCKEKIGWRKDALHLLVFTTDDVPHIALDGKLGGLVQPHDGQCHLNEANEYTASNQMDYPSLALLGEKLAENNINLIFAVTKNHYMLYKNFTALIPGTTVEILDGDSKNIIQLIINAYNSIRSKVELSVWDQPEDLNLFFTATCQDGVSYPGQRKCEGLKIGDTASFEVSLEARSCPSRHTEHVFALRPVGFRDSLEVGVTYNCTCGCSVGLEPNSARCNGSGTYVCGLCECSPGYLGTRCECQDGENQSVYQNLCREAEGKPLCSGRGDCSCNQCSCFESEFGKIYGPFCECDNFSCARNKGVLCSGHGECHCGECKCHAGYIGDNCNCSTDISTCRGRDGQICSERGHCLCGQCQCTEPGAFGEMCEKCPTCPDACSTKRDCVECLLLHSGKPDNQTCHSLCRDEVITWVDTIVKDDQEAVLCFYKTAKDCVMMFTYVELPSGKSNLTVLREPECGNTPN

B1: TGF-β3 RGD multiple antigen presenting peptide DDHGRGDLGRLK (peptide)
peptide: DDHGRGDLGRLK
modifications: also: multiple antigen presenting peptide on 8-lysine core (branched)
notes: Branched peptide on a lysine core; also called L-TGF-b3 peptide; TGFb3 peptide
As for B1, in assay [1], the binding result is recorded as “binds”.

B2: C6D4 (composite antibody of C6 VH and D4 VK; murine IgG2a) (antibody, V domains shown)
VH: QIQLLQSGPELKKPGETVKISCKASGYTFTDYSMHWVKQAPGKGLKWVARINTETGEPTFADDFRGRFAVSLETSASTAYLQINNLKNEDTATYFCAIFYYGRDSWGQGTTLTVSS
VL: DIVMTQSPSSLAVSAGEKVTMSCKSSQSLLNSRTRKNYLAWYQQKPGQSPRLLIYWASTRESGVPDRFTGSGSGTDFTLTISSVQAEDLAVYYCKQSYNLLSFGAGTKLELKR
notes: also called C6D4 murine IgG2a; Mab C6D4
Take B2: the “EC50 of inhibition of TGF-β activation (TMLC luciferase reporter) of GARP/LTGFB1 Cho cells on immobilized αvβ8; unit from the axis” value in assay [2] came out at 1.04 µg/mL. Also, the dissociation constant (Kd) in assay [3] was determined as 0.832 nM. Further, the binding result in assay [4] was “no binding (tested: supernatant at 1/10 dilution)”; in assay [5], “no binding (tested: supernatant at 1/10 dilution)”; in assay [6], “no binding (tested: supernatant at 1/10 dilution)”; in assay [9], “no binding (tested: 5 ug/ml (coated Mab))”. Further, the “Binding in Mg buffer relative to clone 68 (% compared with binding to anti-av clone 11D12V2)” value in assay [7] is 103%. For the same molecule, in assay [8], the “binding intensity score (0-4)” value is 4 score 0-4. Besides, the half-maximal effective concentration (EC50) in assay [10] amounted to 1.2 µg/mL. The molecule also came in with a concentration for half-maximal inhibition (IC50) in [11] of 0.494 µg/mL.

B3: clone C6 (scFv, yeast display) (scFv, V domains shown)
VH: B2 VH with T111A
VL: B2 VL with T5S, S102T, R113A
notes: scFv on yeast; also called A5=C6
Turning to B3, the binding result in assay [12] is on record as “binds”.

The values are drawn from patent US20210230279A1 (University of California, published 2021).
